Measured values: patent US6794491B1, “Polypeptides, their production and use” (Takeda Chemical Industries, Ltd., priority 1995, dated 2004)
“Also recorded” adds a separate entry of the source. Where no end group is shown, it is not given here. [ ]: non-standard residue; d: D form. Met(O) = CS(=O)CC[C@H](N)C(=O)O

Columns and labels:
[1] = biological target: T1, full-length receptor protein expressed CHO cells (CHO-19P2); human pituitary receptor protein (hGR3) (Homo sapiens, UniProt P49683); assay: release of arachidonic acid metabolites from CHO-19P2 cells; type: cell-based; conditions: for arachidonic acid metabolite-releasing activity: amount of [3H]arachidonic acid metabolites, 10^−12 M-10^−6 M in 0.05% BSA-HBSS
T1 construct: to construct a full-length receptor protein expression plasmid pAKKO-19P2; expressed in transfected cells; host or cells: CHO dhfr- cells transfected with pAKKO-19P2 (CHO-19P2; clone CHO-19P2-9)
T1 sequence (P49683 1-370): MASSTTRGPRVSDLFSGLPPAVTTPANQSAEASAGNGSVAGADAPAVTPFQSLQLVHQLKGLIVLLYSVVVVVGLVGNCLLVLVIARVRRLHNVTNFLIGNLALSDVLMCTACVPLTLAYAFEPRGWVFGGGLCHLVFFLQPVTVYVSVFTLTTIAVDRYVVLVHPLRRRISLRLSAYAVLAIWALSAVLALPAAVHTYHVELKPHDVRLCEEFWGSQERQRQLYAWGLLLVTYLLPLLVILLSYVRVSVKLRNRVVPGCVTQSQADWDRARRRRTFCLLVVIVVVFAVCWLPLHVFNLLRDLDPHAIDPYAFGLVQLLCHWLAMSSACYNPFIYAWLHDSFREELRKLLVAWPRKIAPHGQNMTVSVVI
Experimental: The full-length receptor protein-expressed CHO cells and mock CHO cells were seeded in a 24-well plate, 0.5×10^5 cells/well, and cultured for 24 hours. Then, [^3H] arachidonic acid was added at a final concentration of 0.25 μCi/well. Sixteen (16) hours after addition of [^3H] arachidonic acid, the cells were rinsed with 0.05% BSA-HBSS and the above-mentioned crude peptide fraction was added, 400 μl/well. The mixture was incubated at 37° C. for 30 minutes and a 300 μl portion of the reaction mixture (400 μl) was added to 4 ml of a scintillator and the amount of [^3H] arachidonic acid metabolite released into the reaction mixture was determined with a scintillation counter.
The activity of the peptide (19P2-L31) synthesized in Example 21 to specifically release arachidonic acid metabolites from CHO-19P2 cells was assayed in the same manner as Example 11. The synthetic peptide was dissolved in degassed dH20 at a concentration of 10^−3M and diluted with 0.05% BSA-HBSS and the activity to promote release of arachidonic acid metabolites from CHO-19P2 cells at each concentration was assayed using the amount of [^3H]arachidonic acid metabolites as the indicator.
The activity of the synthetic equivalent (19P2-L20) of natural peptide P-2 as synthesized in Example 23 to specifically promote release of arachidonic acid metabolites from CHO-19P2 cells was determined as in Example 11. Thus, the synthetic peptide was dissolved in degassed dH2O at a final concentration of 10^−3M and this solution was serially diluted with 0.05% BAS-HBSS. The activity to specifically promote release of arachidonic acid metabolites from CHO-19P2 cells at each concentration was assayed using the amount of [^3H]arachidonic acid metabolites as the indicator.

[2] = plasma growth hormone (GH) level in freely moving rats, GHRH-induced; type: in vivo, male Wistar rats; conditions: 5 μg/kg GHRH intravenously
Experimental: Mature male Wistar rats were anesthetized with pentobarbital 50 mg/kg i.p. and, as in Example 41, a stainless-steel guide cannula AG-12 (0.4 mm in. dia., 0.5 mm out. dia., EICOM) was implanted in position with its tip situated in the upper part of the third ventricle. After the operation the rats were housed in individual cages and kept for at least 3 days for recuperation and, then, a cannula (30 cm long, 0.5 mm in. dia., 0.9 mm out. dia., Natsume Seisakusho) filled with heparin (200 U/ml)-containing saline was inserted into the right atrium from the right jugular vein under pentobarbital anesthesia. The rats were maintained overnight for complete arousal from anesthesia and then transferred to transparent acrylic cages (30 cm×30 cm×35 cm). A 1 ml tuberculin syringe with a 24-G needle (both by Termo) was connected to the cannula inserted in the atrium and 300 μl of blood was drawn. To prevent clotting, the syringe was filled with 20 μl of saline containing 200 U/ml of heparin beforehand. […] The concentrations of GH in the plasma were determined by radioimmunoassay.
The results were expressed as a mean±S.E.M. To test for significant difference between the group treated with 19P2-L31 dissolved in PBS and the control group treated with PBS alone, Student's t-test was used. […]

Substance | arachidonic acid metabolite-releasing activity compared with that of 19P2-L31 [1] | arachidonic acid metabolite-releasing activity [1] | plasma GH level [2]
19P2-L31(O): the methionine-oxidation product of 19P2-L31 synthesized in Example 22 (SRAHQHS[Met(O)]EIRTPDINPAWYAGRGIRPVGRF-NH2; N-terminus assumed; SMILES CC[C@H](C)[C@H](NC(=O)CNC(=O)[C@H](CCCNC(=N)N)NC(=O)CNC(=O)[C@H](C)NC(=O)[C@H](Cc1ccc(O)cc1)NC(=O)[C@H](Cc1c[nH]c2ccccc12)NC(=O)[C@H](C)NC(=O)[C@@H]1CCCN1C(=O)[C@H](CC(N)=O)NC(=O)[C@@H](NC(=O)[C@H](CC(=O)O)NC(=O)[C@@H]1CCCN1C(=O)[C@@H](NC(=O)[C@H](CCCNC(=N)N)NC(=O)[C@@H](NC(=O)[C@H](CCC(=O)O)NC(=O)[C@H](CCS(C)=O)NC(=O)[C@H](CO)NC(=O)[C@H](Cc1c[nH]cn1)NC(=O)[C@H](CCC(N)=O)NC(=O)[C@H](Cc1c[nH]cn1)NC(=O)[C@H](C)NC(=O)[C@H](CCCNC(=N)N)NC(=O)[C@@H](N)CO)[C@@H](C)CC)[C@@H](C)O)[C@@H](C)CC)C(=O)N[C@@H](CCCNC(=N)N)C(=O)N1CCC[C@H]1C(=O)N[C@H](C(=O)NCC(=O)N[C@@H](CCCNC(=N)N)C(=O)N[C@@H](Cc1ccccc1)C(N)=O)C(C)C) | equivalent to the activity of 19P2-L31 | found in a dose-dependent manner | 
GHRH: Growth hormone releasing hormone (YADAIFTNSYRKVLGQLSARKLLQDIMSRQQGESNQERGARARL; ends and bridges not checked; UniProt P01286 32-75, looked up) [reference compound] |  |  | elevated the plasma GH level
Thr-Pro-Asp-Ile-Aln-Pro-Ala-Trp-Tyr-Ala-Gly-Arg-Gly-Ile-Arg-Pro-Val-Gly-Arg-Phe-NH2 (TPDINPAWYAGRGIRPVGRF-NH2; also: position 5 written 'Aln' in name, letter N) [19P2-L20] | in nearly the same degree as 19P2-L31 | concentration-dependent arachidonic acid metabolite-releasing activity was detected over the range of 10^−12-10^−6M; also recorded: found in a dose-dependent manner | 
